The chains are these.
T1: human CD73 (huCD73) protein, antigen of the Biacore assay (human, UniProt P21589 27-547, limits assumed)
T1 construct: also called human CD73 antigen
T1 sequence (looked up): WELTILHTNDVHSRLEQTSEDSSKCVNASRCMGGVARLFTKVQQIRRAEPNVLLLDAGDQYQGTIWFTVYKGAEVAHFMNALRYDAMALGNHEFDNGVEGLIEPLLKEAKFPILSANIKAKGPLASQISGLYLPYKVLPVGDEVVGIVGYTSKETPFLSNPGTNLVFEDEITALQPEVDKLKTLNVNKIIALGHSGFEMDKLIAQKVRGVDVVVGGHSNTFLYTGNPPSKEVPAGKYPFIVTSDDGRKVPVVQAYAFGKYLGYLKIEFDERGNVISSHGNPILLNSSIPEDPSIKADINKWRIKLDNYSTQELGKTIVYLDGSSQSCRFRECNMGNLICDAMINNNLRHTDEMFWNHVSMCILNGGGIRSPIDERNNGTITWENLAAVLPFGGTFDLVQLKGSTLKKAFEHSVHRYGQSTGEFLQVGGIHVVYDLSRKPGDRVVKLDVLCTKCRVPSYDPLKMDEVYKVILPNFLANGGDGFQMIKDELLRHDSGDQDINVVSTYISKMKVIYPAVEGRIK

B1: Hab108.35 (antibody, V domains shown)
VH: EVTLKESGPVLVKPTETLTLTCTVSGFSLKSYGIQWVRQPPGKLLEWLGVIWSGGSADYNAAFISRLTISKDTSKSQVVLTMTNMDPVDTATYYCAGQYGSVWGQGTLVTVSS
VL: DIQMTQSPSSLSASVGDRVTITCRASQDIGDRLNWLQQKPGGAIKRLIYATSSLDSGVPSRFSGSGSGTEYTLTISSLQPEDFATYYCLQYAGSWTFGGGTKVEIK
notes: VL3 + VH5; full-length antibody
B2: Hab108.63 (antibody, V domains shown)
VH: B1 VH with K30S
VL: B1 VL with S60K
notes: VL6 + VH3; full-length antibody
B3: Hab108.52 (antibody, V domains shown)
VH: B1 VH with K30S, V37I, G49A
VL: B1 VL with G42K, S60K
notes: VL5 + VH2; full-length antibody
B4: Hab108.53 (antibody, V domains shown)
VH: B1 VH with K30S
VL: B1 VL with G42K, S60K
notes: VL5 + VH3; full-length antibody
B5: Hab108.62 (antibody, V domains shown)
VH: B1 VH with K30S, V37I, G49A
VL: B1 VL with S60K
notes: VL6 + VH2; full-length antibody
B6: Hab108.45 (antibody, V domains shown)
VH: B1 VH
VL: B1 VL with T69S, T85D
notes: VL4 + VH5; full-length antibody
B7: Hab108.65 (antibody, V domains shown)
VH: B1 VH
VL: B1 VL with S60K
notes: VL6 + VH5; full-length antibody

Numbering of substitutions follows the chain as printed.

The target of one test is human CD73 on tumor cell line MDA-MB-231 that highly expresses human CD73 (human) (UniProt P21589). In words: cell-based or functional assay.
“MEDI9447 (antibody MEDI9447 disclosed in patent application WO2016075099)” displayed an IC50 (nM) in the assay showing the inhibition of enzyme activity in MDA-MB-231 cell of 0.565 nM.

A further test has as its target T1, human CD73 (huCD73) protein, antigen of …. In words: SPR Biacore T200; antibody captured on Protein A chip, CD73 in flow; 1:1 Langmuir. In short, it runs like this:
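Antibody was captured on a Protein A chip and human or cynomolgus CD73 antigen was flowed over it in HBS-EP running buffer. Surfaces were regenerated with glycine-HCl pH 1.5, and affinities came from a 1:1 Langmuir fit.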
In general terms: In SPR one partner is held on a chip, and binding of the other changes the refractive index at the surface.
A word on the Kd: it is the constant that tells how readily two partners part at equilibrium. Low readings indicate tighter binding, high ones weaker binding. A word on the koff: it is the first-order rate constant of dissociation. A lower koff goes with slow dissociation. Usually kon stands for a measure of how fast the partners come together. The molecule B1 came in with a Kd of 0.28 nM, a koff of 8.09e-05 s⁻¹ and a kon of 290000 M⁻¹ s⁻¹.
In turn, B2 had a Kd of 0.513 nM, an off-rate (koff) of 0.000117 s⁻¹ and a kon of 228000 M⁻¹ s⁻¹.
B3 showed a Kd of 0.93 nM, an off-rate (koff) of 0.000241 s⁻¹ and an association rate constant (kon) of 260000 M⁻¹ s⁻¹.
For B4, the equilibrium dissociation constant (Kd) amounted to 0.609 nM, the koff is 0.000156 s⁻¹ and the kon was 257000 M⁻¹ s⁻¹.
The molecule B5 had a dissociation constant Kd of 0.382 nM, a dissociation rate constant (koff) of 8.68e-05 s⁻¹ and a kon of 227000 M⁻¹ s⁻¹.
Consider B6, for which binding was put at a Kd of 0.253 nM, the koff was determined as 7.38e-05 s⁻¹ and the kon turned out to be 292000 M⁻¹ s⁻¹.
For B7 the same measures were 0.246 nM, 6.93e-05 s⁻¹ and 281000 M⁻¹ s⁻¹.

The values above are taken from patent publication US20220220218A1 (JIANGSU HENGRUI MEDICINE, published 2022).
